One test has as its target SHP1 (Homo sapiens, UniProt P29350). The conditions noted are these: reference (40); cited from earlier work.
Test [1] deals with T1, PTP-1B DA (trapping mutant) (Homo sapiens, UniProt P18031, D181A).
T1 construct: specific primers corresponding to the beginning and the end of the catalytic domain of every PTPs were used; made in house; host or cells: Escherichia coli BL21 (codon +)
T1 sequence (P18031 3-277 D181A limits assumed): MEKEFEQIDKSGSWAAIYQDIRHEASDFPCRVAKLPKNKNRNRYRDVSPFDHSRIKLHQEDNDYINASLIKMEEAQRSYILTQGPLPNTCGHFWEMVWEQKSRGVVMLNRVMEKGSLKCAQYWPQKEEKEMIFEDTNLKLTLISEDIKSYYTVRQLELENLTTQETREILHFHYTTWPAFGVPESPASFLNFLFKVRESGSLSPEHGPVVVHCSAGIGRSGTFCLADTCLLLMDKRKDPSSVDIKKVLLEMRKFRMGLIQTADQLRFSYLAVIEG
As to the kind of experiment: SPOT analysis, membrane peptides probed with radiolabeled PTP. The settings on record: for SPOT binding to PTP1B trapping mutant, double phosphorylated peptide: two phosphorylated Tyr, compared with single ones; for SPOT binding to PTP1B trapping mutant: 15-mer peptides with phospho-Tyr on membrane. The format is binding. The procedure: (§1) Labelling of GST-PTP for the SPOT analysis was performed as follows: 2 to 5 μg of GST fusion proteins were bound to glutathion-sepharose beads (Amersham Pharmacia Biotech) at 4° C. After washes GST fusion proteins were radiolabeled by 50 units of protein kinase from bovine heart (Sigma) in presence of 35 μCi of (γ-32P) ATP in PKA buffer (20 mM Tris pH 7.5, 100 mM NaCl, 12 mM MgCl2, 1 mM DTT) for 30 minutes on ices. After washes, fusion proteins were eluted from beads by 10 mM free glutathione in 50 mM Tris, pH 8.0 (28).
(§2) Peptides were manually synthesized on derivatized cellulose membrane provided by Sigma-Genosys, which also provided the 20 Fmoc-amino acids active esters. Fmoc-phosphotyrosines from Novabiochem (#04-12-1156) were incorporated in presence of the coupling reagent, N,N′-Diisopropylcarbodiimide (DIC; Sigma) and hydroxybenzotriale (HOBt; Fluka; Espanel et al., submitted).
(§3) Membranes were blocked (at least 2 hours) and probed at 4° C. in Western wash buffer (10 mM Tris, pH 7.4, 0.1% Triton X-100 and 150 mM NaCl)+SPOT blocking buffer (Sigma-Genosys). After 2 hours, membranes were washed several times in Western wash buffer and were autoradiographed.

Another test has as its system PTP-Sap1 R88N. The test is described as above. The format is binding. The settings on record: 15-mer peptides with phosphotyrosine on membrane. The procedure:
as §1, §2, §3

Test [2] concerns the target T2, PTP1B trapping mutant (Homo sapiens, UniProt P18031, D181A).
T2 construct: These two restriction sites were used to clone the catalytic domain in frame into a pGEX4TK vector (Pharmacia); made in house; host or cells: Escherichia coli BL21 (codon +)
T2 sequence (P18031 3-277 D181A limits assumed): T1 sequence (P18031 3-277 D181A limits assumed)
As to the kind of experiment: ELISA of phosphorylated phage clones on coated GST-PTP. The format is binding. The settings on record: PTP1B selected phage clones, src-phosphorylated. The procedure: (§4) Single clones were amplified as described previously. The coating was done with GST-PTP or GST alone in PBS (2 μg per well in a 96 well plate format). Phosphorylation of the phages was performed following the described protocol (with and without 3 U of src kinase, in order to check the phospho-Tyr specificity of the recognition, thus be sure that positives were catalytic domain specific as shown in (30)) and during this process, each well was blocked with a solution of 5% fat free powder milk in PBS. Wells were washed 5 times in PBS-Tween® 0.5% and phages were incubated with the PTP-GST or GST in 100 μl Trapping Buffer (20 mM Tris pH 7.5, 150 mM NaCl and 1 mM EDTA) for 2 hours at 4° C. Wells were extensively washed and blocked for 1 hour in PBS-5% Milk.

Test [3] addresses T3, PTP-Sap1 (Homo sapiens, UniProt Q9HD43, D986A).
T3 construct: These two restriction sites were used to clone the catalytic domain in frame into a pGEX4TK vector (Pharmacia); made in house; host or cells: Escherichia coli BL21 (codon +)
T3 sequence (Q9HD43 820-1079 D986A limits assumed): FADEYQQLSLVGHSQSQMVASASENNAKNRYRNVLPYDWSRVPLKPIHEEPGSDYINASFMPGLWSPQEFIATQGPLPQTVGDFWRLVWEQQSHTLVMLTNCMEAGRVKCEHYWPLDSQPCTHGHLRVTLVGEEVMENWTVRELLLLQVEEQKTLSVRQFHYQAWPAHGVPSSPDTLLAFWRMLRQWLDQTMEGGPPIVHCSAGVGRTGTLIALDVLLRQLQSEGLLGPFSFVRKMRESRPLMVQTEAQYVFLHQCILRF
The test is described as above. The format is binding. The conditions noted are these: PTP-Sap1 selected phage clones, src-phosphorylated. On the procedure:
as §4

The target of test [4] is T3, PTP-Sap1. Kind of test: Panning of the tyrosine-biased phage library and sequencing of trapped clones. The format is binding. The settings on record: after three rounds, sequenced trapped phages. The procedure:
(§5) Phages (10^9-10^10) were incubated for three hours at 30° C. in the kinase buffer (25 mM Tris pH7.5, 5 mM MgCl2, 2.5 mM MnCl2, 2.5 mM DTT and 1 mM ATP) in a total volume of 20 μl. […] Therefore, the total library was phosphorylated and passed through an antiPTyr column (Upstate). The bound phages were eluted with phenylphosphate, and the clones were passed twice again in the column. The amplified Tyrosine-carrying phages were then stocked at 4° C. in TE and used for the trapping experiment (see below). […] Furthermore, no sequences were found twice. […] This was checked following our phosphorylation protocol and using (γ-32P) ATP as a tracer.
(§6) Phages (10^8 to 10^9) were incubated in kinase buffer (20 mM Tris pH7.5, 5 mM MgCl2, 2.5 mM MnCl2, 1 mM ATP, 2.5 mM DTT and with or without 3 Units of src kinase) for 3 hours at 30° C. The p60src, purified from Baculovirus, was purchased from Upstate Biotech. Gluthation-Sepharose beads were pre-coated with 3 μg of either GST or PTP-GST for 4 hours at 4° C. in a solution of Trapping Buffer (20 mM Tris pH 7.5, 150 mM NaCl and 1 mM EDTA) with 1% BSA final. The phages were first pre-cleared using GST-beads for 30 minutes at 4° C., spun down and the supernatant was incubated with the coated PTP-GST for 1.5 hours at 4° C. with a constant shaking. Finally beads were spun down and washed several times (5 times for the first panning, then 10 times) with a solution of PBS with 0.25% Tween® final. Phages were eluted from PTP-GST by an acidic treatment (glycine buffer, pH 2.7) for 10 minutes at RT with a constant shaking, beads were spun down and phages were recovered in the supernatant. One tenth volume of a 1 M Tris pH 9.0 solution was added in order to restore the pH. Phages were finally titred in both fractions (bound and unbound) and the rest of the bound fraction was used to infect XL1 MRF′ Bacteria (Stratagene) following described procedures (24). The day after, cells were scraped and phages were amplified using helper phage M13K07 (Pharmacia) using the manufacturer's procedures.
(§7) When an increase in the number of trapped clones was observed, phages where purified as single clones and colony-PCR was performed using phage primers, forward: 5′ATG AAA AAG TCT TTA GTC CTC3′ and reverse: 5′CAG CTT GAT ACC GAT AGT TGC3′. The PCR products were then purified and sequenced using the same primers. Sequences were read in both direction using SeqmanII Software.

A further test deals with T4, PTP-Sap1DA (Homo sapiens, UniProt Q9HD43, D986A).
T4 construct: specific primers corresponding to the beginning and the end of the catalytic domain of every PTPs were used; made in house; host or cells: Escherichia coli BL21 (codon +)
T4 sequence (Q9HD43 820-1079 D986A limits assumed): T3 sequence (Q9HD43 820-1079 D986A limits assumed)
As to the kind of experiment: SPOT analysis, membrane peptides probed with radiolabeled PTP. The format is binding. The procedure: as §1, §2, §3

Test [5] addresses T2, PTP1B trapping mutant. As to the kind of experiment: Panning of the tyrosine-biased phage library and sequencing of trapped clones. The format is binding. The settings on record: after three pannings, sequenced trapped phages. The procedure: as §5, §6, §7

“Also recorded” adds a separate entry of the source. Square brackets hold non-standard residues; d marks the D form. Ends that are not written are not given here. pY = N[C@@H](Cc1ccc(OP(=O)(O)O)cc1)C(=O)O

Chain of SHP1 (P29350 whole entry): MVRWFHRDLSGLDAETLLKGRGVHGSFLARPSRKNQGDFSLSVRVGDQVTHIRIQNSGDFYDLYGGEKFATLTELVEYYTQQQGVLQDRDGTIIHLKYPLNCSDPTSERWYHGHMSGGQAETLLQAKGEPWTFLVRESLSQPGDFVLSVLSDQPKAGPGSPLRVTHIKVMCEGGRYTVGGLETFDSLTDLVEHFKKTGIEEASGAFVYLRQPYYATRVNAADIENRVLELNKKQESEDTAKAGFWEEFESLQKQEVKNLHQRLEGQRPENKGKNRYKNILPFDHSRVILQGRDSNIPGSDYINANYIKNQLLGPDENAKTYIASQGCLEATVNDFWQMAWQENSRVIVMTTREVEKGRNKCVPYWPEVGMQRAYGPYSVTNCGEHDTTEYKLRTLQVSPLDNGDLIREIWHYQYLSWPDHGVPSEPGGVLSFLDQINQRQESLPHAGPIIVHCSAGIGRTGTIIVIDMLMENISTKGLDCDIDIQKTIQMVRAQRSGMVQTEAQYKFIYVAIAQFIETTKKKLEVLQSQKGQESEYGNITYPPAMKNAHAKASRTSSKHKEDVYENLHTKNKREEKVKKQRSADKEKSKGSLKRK

For `O.O.O.O.O.O.O.O.O.O=C([O-])[C@@H]1[O][Sb]2([O-])([O][Sb]34([OH])[O][C@H]([C@H](O)CO)[C@H]([O]3)[C@H](C(=O)[O-])[O]4)[O][C@H]([C@H](O)CO)[C@@H]1[O]2.[Na+].[Na+].[Na+]` [sodium stibogluconate], the “Inhibition of SHP1” value on SHP1 was “strongly inhibits”. Consider “EFATpYEEYALMDPAK (EFAT[pY]EEYALMDPAK) [Clone 1b-12]”, for which the “SPOT binding to PTP1B trapping mutant, double phosphorylated peptide” value in test [1] was “did not seem to react as well as single ones”. In the case of “EFEPIpYNAYQVDPAK (EFEPI[pY]NAYQVDPAK) [Clone 1b-6]”, the “SPOT binding to PTP1B trapping mutant” value in test [1] was “All except two sequences (1b-6 and 1b11) were recognized”. On to “EFGATpYGVYTSDPAK (EFGAT[pY]GVYTSDPAK) [Sm-2]”, for which, in the test with PTP-Sap1 R88N, the “SPOT binding to PTP-Sap1 R88N” value was “strongest signals”. Take “EFIpYGSFHQTADPAK (EFI[pY]GSFHQTADPAK) [Sm-15]”: the “SPOT binding to PTP-Sap1 R88N” value with PTP-Sap1 R88N is recorded as “strongest signals”. In the case of “EFLpYANVERSSDPAK (EFL[pY]ANVERSSDPAK) [Sm-8]”, the results for the “SPOT binding to PTP-Sap1 R88N” value in the test with PTP-Sap1 R88N and with PTP-Sap1 R88N (listed as sm-8) were “did not bind” and “not recognized”, respectively. For the compound “EFQSPVpYGNFADPAK (EFQSPV[pY]GNFADPAK) [Clone 1b-11]”, the “SPOT binding to PTP1B trapping mutant” value in test [1] was “All except two sequences (1b-6 and 1b11) were recognized”.

As for “EFQpYZGEYTRGDPAK (EFQ[pY]XGEYTRGDPAK; not fully specified (residue 5)) [Clone 1b-4]”, the ELISA entry with PTP1B trapping mutant [2] is “not found in ELISA”. Besides, in test [1], the “SPOT binding to PTP1B trapping mutant” value is listed as “confirmed in SPOT; also recorded: best substrate in this assay” and the “SPOT binding to PTP1B trapping mutant, double phosphorylated peptide” value is “binding became more efficient”. For the compound “EFpYGAYSNADLDPAK (EF[pY]GAYSNADLDPAK) [x5]”, in the test with PTP-Sap1 [3], the ELISA entry is reported as “strongest”. Besides, in the test with PTP-Sap1 [4], the “Copy in the pool” value came to 2X. Also, the “SPOT binding to PTP-Sap1DA, doubly phosphorylated” value with PTP-Sap1DA (doubly phosphorylated sequence) is “weaker signal”. Turning to “EFpYGPVASDASDPAK (EF[pY]GPVASDASDPAK) [x58]”, the ELISA entry with PTP-Sap1 [3] is listed as “recognized in ELISA”. As for “EFpYGQFpYGPPQDPAK (EF[pY]GQF[pY]GPPQDPAK) [x2]”, in the test with PTP-Sap1DA (15-mer peptides with phosphotyrosine on membrane), the “SPOT binding to PTP-Sap1DA” value is given as “comparable SPOT results for both phosphorylated Tyrosines”. Regarding “EFpYGQIGDHLVDPAK (EF[pY]GQIGDHLVDPAK) [Sm-11]”, in the test on PTP-Sap1 R88N, the “SPOT binding to PTP-Sap1 R88N” value is “strongest signals”. In the case of “EFpYGTFAPKPLDPAK (EF[pY]GTFAPKPLDPAK) [Clone 1b-13]”, the “SPOT binding to PTP1B trapping mutant” value in test [1] was “signal is weaker”. Regarding “EFpYGTFAQSAEDPAK (EF[pY]GTFAQSAEDPAK) [x9]”, in the test with PTP-Sap1 [4], the “Copy in the pool” value is recorded as 3X. Consider “EFpYGTYRGQDSDPAK (EF[pY]GTYRGQDSDPAK) [Clone 1b-14]”, for which the “Copy in the pool” value with PTP1B trapping mutant [5] is listed as 2×. “EFpYNLYEGVMSDPAK (EF[pY]NLYEGVMSDPAK) [Clone 1b-9]”: the ELISA entry with PTP1B trapping mutant [2] is “not found in ELISA”. The “SPOT binding to PTP1B trapping mutant” value in test [1] was “confirmed in SPOT”.

The values above are taken from patent US20060241020A1, “Protein tyrosine phosphatase inhibitors” (Applied Research Systems ARS Holdings N.V., priority 2002, published 2006).
